Laboratory results as given in paper PMC5327734 (Nature communications, 2015).

Target: T1, pre-activated, recombinant, full length, human MST1 protein kinase (human, UniProt Q13043 1-487)
T1 sequence (looked up): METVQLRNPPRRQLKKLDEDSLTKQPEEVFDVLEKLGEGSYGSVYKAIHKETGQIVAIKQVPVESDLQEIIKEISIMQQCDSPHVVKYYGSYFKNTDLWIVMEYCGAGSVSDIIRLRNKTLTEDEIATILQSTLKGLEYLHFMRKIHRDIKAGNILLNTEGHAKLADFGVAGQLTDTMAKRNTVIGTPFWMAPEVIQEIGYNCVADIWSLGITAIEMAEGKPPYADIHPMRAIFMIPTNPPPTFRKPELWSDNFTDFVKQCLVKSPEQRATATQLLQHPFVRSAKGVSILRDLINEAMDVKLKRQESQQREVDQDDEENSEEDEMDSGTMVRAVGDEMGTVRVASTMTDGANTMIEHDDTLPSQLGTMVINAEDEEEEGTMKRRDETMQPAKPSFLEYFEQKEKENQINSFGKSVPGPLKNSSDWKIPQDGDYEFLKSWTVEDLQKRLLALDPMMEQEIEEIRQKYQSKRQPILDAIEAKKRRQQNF
Assay: pull-down

B1: GST-YAP1-PR/TEAD (residues 2-150) (domain or fragment, UniProt P46937 2-150, looked up)
chain: DPGQQPPPQPAPQGQGQPPSQPPQGQGPPSGPGQPAPAATQAAPQAPPAGHQIVHVRGDSETDLEALFNAVMNPKTANVPQTVPMRLRKLPDSFFKPPEPKSHSRQASTDAGTAGALTPQHVRAHSSPASLQLGAVSPGTLTPTGVVSG
Question: Does B1 bind?
Answer: binds
